Experiment [1] has as its target FcRn of the FcRn column (Roche, Order No. 8128057001). The experiment can be described thus: FcRn affinity chromatography, pH gradient.
The target of another experiment is human FcRn (human) (UniProt P55899). The experiment can be described thus: SPR pH 6.0, FcRn immobilised.
Experiment [2] concerns the target cynomolgus FcRn (cynomolgus) (UniProt Q8SPV9). The experiment can be described thus: SPR pH 6.0, FcRn immobilised.
Another experiment has as its target mouse FcRn (mouse) (UniProt Q61559). The experiment can be described thus: SPR pH 6.0, FcRn immobilised.
Experiment [3] has as its target human CCR8 (human) (UniProt P51685). As to the kind of experiment: FACS, BODIPY-labelled antibody, HuT78.
Experiment [4] addresses cynomolgus CCR8 (cynomolgus). The experiment can be described thus: FACS, CHO-cynoCCR8. (In general: Flow cytometry measures light scatter and fluorescence of single cells or particles in a stream.)
For experiment [5], the target named is human CCR8 (human) (UniProt P51685). As to the kind of experiment: cell-based or functional assay.
Experiment [6] shares this target. The experiment can be described thus: FACS, CHO-hCCR8.
In the next experiment the target is murine CCR8 (mouse) (UniProt P56484). The experiment can be described thus: FACS, BODIPY-labelled antibody, BW5147.3.
murine CCR8 (mouse), sequence (P56484 whole entry): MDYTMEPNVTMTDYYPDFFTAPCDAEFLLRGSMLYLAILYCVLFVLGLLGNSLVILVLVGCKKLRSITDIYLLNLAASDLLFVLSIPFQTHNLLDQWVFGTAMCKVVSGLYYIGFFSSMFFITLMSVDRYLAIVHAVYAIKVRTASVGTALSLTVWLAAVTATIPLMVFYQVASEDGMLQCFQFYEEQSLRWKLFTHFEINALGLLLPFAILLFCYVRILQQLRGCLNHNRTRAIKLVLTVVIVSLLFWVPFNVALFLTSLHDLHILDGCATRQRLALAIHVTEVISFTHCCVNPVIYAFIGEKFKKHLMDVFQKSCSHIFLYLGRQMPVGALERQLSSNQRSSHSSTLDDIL

What is called Kd is a measure of binding affinity in units of concentration. Usually EC50 stands for the midpoint of the concentration-response curve. A high value points to weaker potency.

Ustekinumab (antibody), sequence (HC): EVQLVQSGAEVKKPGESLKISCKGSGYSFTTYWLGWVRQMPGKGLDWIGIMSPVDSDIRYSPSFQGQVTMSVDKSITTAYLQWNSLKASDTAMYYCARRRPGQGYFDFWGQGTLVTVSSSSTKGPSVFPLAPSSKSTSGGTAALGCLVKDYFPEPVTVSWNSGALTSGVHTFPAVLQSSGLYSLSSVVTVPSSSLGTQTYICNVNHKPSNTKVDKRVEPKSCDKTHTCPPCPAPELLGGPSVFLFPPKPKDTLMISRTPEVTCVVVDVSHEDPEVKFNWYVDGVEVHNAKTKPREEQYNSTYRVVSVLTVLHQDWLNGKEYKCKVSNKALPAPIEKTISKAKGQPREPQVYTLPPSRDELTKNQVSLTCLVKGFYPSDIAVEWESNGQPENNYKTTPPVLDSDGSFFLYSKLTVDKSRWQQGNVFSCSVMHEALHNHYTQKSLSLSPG
Ustekinumab (antibody), sequence (LC): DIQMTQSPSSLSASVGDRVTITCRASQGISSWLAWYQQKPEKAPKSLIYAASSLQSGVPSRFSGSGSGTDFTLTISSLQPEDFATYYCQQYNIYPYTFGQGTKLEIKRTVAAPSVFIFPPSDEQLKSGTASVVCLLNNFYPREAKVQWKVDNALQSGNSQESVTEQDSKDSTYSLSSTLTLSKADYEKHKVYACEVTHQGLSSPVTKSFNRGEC
cynomolgus FcRn (cynomolgus), sequence (Q8SPV9 24-297 limits assumed, form in doubt): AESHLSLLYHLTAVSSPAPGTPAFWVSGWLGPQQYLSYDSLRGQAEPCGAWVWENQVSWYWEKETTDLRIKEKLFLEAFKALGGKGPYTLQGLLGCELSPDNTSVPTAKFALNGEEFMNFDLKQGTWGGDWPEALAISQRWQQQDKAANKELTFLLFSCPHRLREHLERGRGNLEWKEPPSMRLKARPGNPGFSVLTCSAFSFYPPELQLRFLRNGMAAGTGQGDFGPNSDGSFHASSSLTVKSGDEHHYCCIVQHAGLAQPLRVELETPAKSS
FcRn of the FcRn column (Roche, Order No. 8128057001), sequence (P55899 24-297, chain 1 of 2): as the sequence (Q8SPV9 24-297 limits assumed, form in doubt) above, with D39N, Q44E, S99G, G189S, N190S, M217L, T269S counted along it
FcRn of the FcRn column (Roche, Order No. 8128057001), sequence (P61769 21-119, chain 2 of 2, further chain): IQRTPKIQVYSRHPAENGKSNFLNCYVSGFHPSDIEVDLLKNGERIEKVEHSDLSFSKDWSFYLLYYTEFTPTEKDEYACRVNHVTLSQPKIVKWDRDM
human FcRn (human), sequence (P55899 24-297 limits assumed, form in doubt): as the sequence (Q8SPV9 24-297 limits assumed, form in doubt) above, with D39N, Q44E, S99G, G189S, N190S, M217L, T269S counted along it
mouse FcRn (mouse), sequence (Q61559 22-297 limits assumed, form in doubt): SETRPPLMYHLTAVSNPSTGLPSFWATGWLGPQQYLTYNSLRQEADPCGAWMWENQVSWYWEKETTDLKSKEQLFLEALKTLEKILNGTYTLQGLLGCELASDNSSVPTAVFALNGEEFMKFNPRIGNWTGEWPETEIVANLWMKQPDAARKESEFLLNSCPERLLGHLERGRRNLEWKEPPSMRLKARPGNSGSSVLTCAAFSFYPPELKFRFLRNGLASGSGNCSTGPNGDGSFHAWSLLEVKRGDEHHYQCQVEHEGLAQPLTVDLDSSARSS
cynomolgus CCR8 (cynomolgus), sequence (O97665 other isoform, or with tags, fused parts or gaps): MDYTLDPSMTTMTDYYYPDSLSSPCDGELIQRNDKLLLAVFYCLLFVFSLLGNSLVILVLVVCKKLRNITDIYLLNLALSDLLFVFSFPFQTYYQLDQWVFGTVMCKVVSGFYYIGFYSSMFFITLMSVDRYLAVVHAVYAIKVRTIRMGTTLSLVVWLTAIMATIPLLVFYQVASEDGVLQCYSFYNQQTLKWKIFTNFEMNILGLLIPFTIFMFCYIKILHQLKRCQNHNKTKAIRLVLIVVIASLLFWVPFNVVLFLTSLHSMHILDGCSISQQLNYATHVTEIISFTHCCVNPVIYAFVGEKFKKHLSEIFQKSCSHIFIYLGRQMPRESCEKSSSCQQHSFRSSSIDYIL

For Ustekinumab (antibody), the pH at Elution in experiment [1] is 7.22 pH. For the same substance, the dissociation constant (Kd) with human FcRn (human) worked out at 200 nM; in [2] it was 260 nM; with mouse FcRn (mouse), 71 nM.

In the case of Briakinumab (antibody), the pH at Elution in experiment [1] worked out at 7.85 pH. The Kd in the experiment with human FcRn (human) worked out at 230 nM; in [2], 160 nM; with mouse FcRn (mouse), 560 nM.

With L263G8 (antibody), the FACS HuT78 [MFI] with human CCR8 (human) [3] is 40 MFI. The substance further returned an EC50 in experiment [4] of 132 nM. In addition, in the experiment with human CCR8 (human) [5], the IC50, Ca flux assay was 1.26 nM and the IC50, inhibition of CCL1 induced β-arrestin signaling stood at 13.8 nM. Moreover, in the experiment with human CCR8 (human) [6], the EC50 came out at 0.31 nM.

Regarding “CCL1 (human) (from UniProt P22362 24-96) (ligand)”, in the experiment with human CCR8 (human) [5], the EC80, β-arrestin signaling (DiscoverX assay) is 0.02 µg/mL.

For the substance SA214G2 (antibody), the FACS mBW5147.3 [MFI] with murine CCR8 (mouse) was found to be 48 MFI.

Values taken from US20230250178A1.
